Reference: US20090099087A1 (STC UNM, published 2009)

Experiments:
human plasmin [1] = molecular target: T1, human plasmin (human, UniProt P00747 97-810, limits assumed); assay: chromogenic (S-2251) amidolytic inhibition assay, plasmin 30 nM
Procedure: Example I provides an illustrative example of assessment of the inhibitory activity. […] The chromogenic substrate S-2251 (D-Val-Leu-Lys-p-nitroanilide; DiaPharma Group Inc., West Chester, Ohio) was then added and residual plasmin amidolytic activity was measured at 405 nm in a Molecular Devices UVₘₐₓ kinetic microplate reader.
(§1) Trypsin and plasmin inhibition assays were performed as described elsewhere (Petersen et al., Biochemistry, 35:266-272, 1996). Briefly, trypsin and plasmin were incubated with various concentrations of inhibitor preparations for 15 minutes at 37° C. in a 96-well microtitration plate. The chromogenic substrate S-2251 was then added and residual amidolytic activity was measured in a Molecular Devices UVₘₐₓ kinetic microplate reader.

[2] = molecular target: T2, factor VIIa-tissue factor complex (human recombinant factor VIIa with recombinant soluble human tissue factor) (human, UniProt P08709 61-466; P13726 33-251, limits assumed); assay: chromogenic (S-2288) amidolytic inhibition assay, FVIIa 50 nM / soluble TF 100 nM
T2 construct: The complex was formed from 50 nM factor VIIa and 100 nM soluble tissue factor in 5 mM CaCl2; Factor VIIa is itself a two-chain enzyme; also called FVIIa-TF; VIIa-TF
Procedure: (§2) Recombinant soluble human tissue factor (100 nM) and factor VIIa (50 nM) were incubated in a TBS-BSA buffer/5 mM CaCl₂ for 15 minutes at 37° C. Following this incubation, aliquots (100 μl) were dispensed into a 96-well microtitration plate and treated with serial dilutions of inhibitors dissolved in TBS buffer. After 15 minutes of incubation, 30 μl of S-2288 (final concentration, 1 mM) was added to each well and the absorbance at 405 nm was determined as described earlier.

porcine trypsin [3] = molecular target: T3, porcine trypsin (porcine, UniProt P00761 9-231); assay: chromogenic (S-2251) amidolytic inhibition assay, trypsin 50 nM
Procedure: as §1

porcine trypsin [4] = molecular target: T3, porcine trypsin; assay: chromogenic amidolytic inhibition assay, trypsin; reference BPTI
Procedure: as §1

human plasmin [5] = molecular target: T1, human plasmin; assay: chromogenic amidolytic inhibition assay, plasmin; reference full-length TFPI-2
Procedure: as §1

porcine trypsin [6] = molecular target: T3, porcine trypsin; assay: chromogenic amidolytic inhibition assay, trypsin; reference full-length TFPI-2
Procedure: as §1

human plasmin [7] = molecular target: T1, human plasmin; assay: chromogenic amidolytic inhibition assay, plasmin; reference BPTI
Procedure: as §1

human plasmin [8] = molecular target: T1, human plasmin; assay: chromogenic amidolytic inhibition assay, plasmin; reference wild-type KD1
Procedure: as §1

human plasmin [9] = molecular target: T1, human plasmin; assay: chromogenic amidolytic inhibition assay; reference wild-type KD1
Procedure: as §1, §2

porcine trypsin [10] = molecular target: T3, porcine trypsin; assay: as above
Procedure: as §1, §2

[11] = molecular target: T2, factor VIIa-tissue factor complex …; assay: as above
Procedure: as §1, §2

[12] = molecular target: T2, factor VIIa-tissue factor complex …; assay: chromogenic amidolytic inhibition assay, FVIIa-TF; reference wild-type KD1
Procedure: as §2

T1 sequence (P00747 97-810 limits assumed): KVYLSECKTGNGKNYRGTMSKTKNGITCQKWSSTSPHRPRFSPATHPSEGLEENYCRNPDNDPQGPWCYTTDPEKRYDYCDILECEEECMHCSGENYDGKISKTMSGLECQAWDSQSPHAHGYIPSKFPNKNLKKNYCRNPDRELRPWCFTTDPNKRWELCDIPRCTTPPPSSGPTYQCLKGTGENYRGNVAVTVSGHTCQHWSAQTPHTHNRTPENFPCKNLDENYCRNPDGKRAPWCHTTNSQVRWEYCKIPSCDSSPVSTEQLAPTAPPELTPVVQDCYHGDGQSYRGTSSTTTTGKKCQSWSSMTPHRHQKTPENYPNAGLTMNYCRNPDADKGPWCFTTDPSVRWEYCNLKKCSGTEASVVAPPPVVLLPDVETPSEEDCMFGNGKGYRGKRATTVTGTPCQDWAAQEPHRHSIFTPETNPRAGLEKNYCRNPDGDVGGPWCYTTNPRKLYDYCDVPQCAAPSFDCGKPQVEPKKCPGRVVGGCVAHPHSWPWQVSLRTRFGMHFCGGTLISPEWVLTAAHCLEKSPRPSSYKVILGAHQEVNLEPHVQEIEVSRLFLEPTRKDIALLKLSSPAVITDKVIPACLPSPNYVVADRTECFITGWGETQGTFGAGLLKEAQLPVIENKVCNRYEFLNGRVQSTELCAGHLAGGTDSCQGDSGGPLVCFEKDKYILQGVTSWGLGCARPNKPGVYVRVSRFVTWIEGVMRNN
T2 sequence (P08709 61-466 limits assumed, chain 1 of 2): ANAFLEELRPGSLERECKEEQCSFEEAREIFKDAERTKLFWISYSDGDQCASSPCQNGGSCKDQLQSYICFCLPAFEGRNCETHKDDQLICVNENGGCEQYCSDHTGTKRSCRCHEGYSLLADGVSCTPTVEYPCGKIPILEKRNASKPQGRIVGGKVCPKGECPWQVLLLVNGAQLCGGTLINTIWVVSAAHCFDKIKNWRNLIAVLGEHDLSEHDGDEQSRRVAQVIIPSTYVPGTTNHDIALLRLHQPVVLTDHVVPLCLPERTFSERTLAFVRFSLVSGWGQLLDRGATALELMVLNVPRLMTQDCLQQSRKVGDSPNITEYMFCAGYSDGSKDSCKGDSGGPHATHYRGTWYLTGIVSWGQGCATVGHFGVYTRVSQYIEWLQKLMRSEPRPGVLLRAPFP
T2 sequence (P13726 33-251 limits assumed, chain 2 of 2): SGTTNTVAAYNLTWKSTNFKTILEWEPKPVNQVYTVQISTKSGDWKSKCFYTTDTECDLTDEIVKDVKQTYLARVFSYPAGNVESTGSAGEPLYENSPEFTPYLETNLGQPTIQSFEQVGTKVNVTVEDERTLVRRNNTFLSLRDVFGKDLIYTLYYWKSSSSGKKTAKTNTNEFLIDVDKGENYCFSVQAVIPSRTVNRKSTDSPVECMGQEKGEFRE
T3 sequence (P00761 9-231 limits assumed): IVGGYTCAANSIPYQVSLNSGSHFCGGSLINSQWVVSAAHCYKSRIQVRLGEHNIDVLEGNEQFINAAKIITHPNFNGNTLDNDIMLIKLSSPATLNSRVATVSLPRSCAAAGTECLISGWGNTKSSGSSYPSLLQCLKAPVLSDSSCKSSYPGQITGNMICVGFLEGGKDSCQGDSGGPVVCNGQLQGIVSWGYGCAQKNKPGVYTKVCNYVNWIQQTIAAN

B1: recombinant human tissue factor pathway inhibitor-2 (TFPI-2), full-length (other)
chain: DAAQEPTGNNAEICLLPLDYGPCRALLLRYYYDRYTQSCRQFLYGGCEGNANNFYTWEACDDACWRIEKVPKVCRLQVSVDDQCEGSTEKYFFNLSSMTCEKFFSGGCHRNRIENRFPDEATCMGFCAPKKIPSFCYSPKDEGLCSANVTRYYFNPRYRTCDAFTYTGCGGNDNNFVSREDCKRACAKALKKKKKMPKLRFASRIRKIRKKQF
notes: Eukaryotically expressed recombinant full-length protein, described as a 213 amino acid polypeptide and prepared by a published method (Sprecher et al.); also called full-length TFPI-2; intact TFPI-2
Ki (human plasmin [1]): 9 nM | Ki [2]: 1910 nM | Ki (porcine trypsin [3]): 21 nM

B2: wild-type first Kunitz-type domain (KD1) of human TFPI-2, His-tagged, E. coli (other)
chain: DAAQEPTGNNAEICLLPLDYGPCRALLLRYYYDRYTQSCRQFLYGGCEGNANNFYTWEACDDACWRIEKVPKV
notes: the monomer was purified; also called wild-type KD1; TFPI-2 KD1; not shown: N-terminal decahistidine-tag leader and enterokinase cleavage site from pET19b
fold less potent than BPTI (porcine trypsin [4]): 2 fold | fold more potent than full-length TFPI-2 (human plasmin [5]): 3 fold | Ki (human plasmin [1]): 3 nM | Ki [2]: 1640 nM | fold higher inhibitory activity than full-length TFPI-2 (porcine trypsin [6]): ~2 fold | Ki (porcine trypsin [3]): 13 nM | fold higher Ki than BPTI (human plasmin [7]): ~3 fold

B3: D19A KD1 (other)
chain: DAAQEPTGNNAEICLLPLAYGPCRALLLRYYYDRYTQSCRQFLYGGCEGNANNFYTWEACDDACWRIEKVPKV
notes: Point mutant of His-tagged KD1, KD1 numbering; also called D19A (D10A); not shown: N-terminal decahistidine-tag leader and enterokinase cleavage site from pET19b
Ki (human plasmin [1]): 118 nM | Ki [2]: 1960 nM | fold loss of inhibitory activity (against wild-type KD1) (human plasmin [8]): ~40 fold | Ki (porcine trypsin [3]): 15 nM

B4: F42A KD1 (other)
chain: DAAQEPTGNNAEICLLPLDYGPCRALLLRYYYDRYTQSCRQALYGGCEGNANNFYTWEACDDACWRIEKVPKV
notes: Point mutant of His-tagged KD1, KD1 numbering; also called F42A (F33A); not shown: N-terminal decahistidine-tag leader and enterokinase cleavage site from pET19b
Ki (human plasmin [1]): 79 nM | Ki [2]: 61200 nM | Ki (porcine trypsin [3]): 155 nM

B5: G21D KD1 (other)
chain: DAAQEPTGNNAEICLLPLDYDPCRALLLRYYYDRYTQSCRQFLYGGCEGNANNFYTWEACDDACWRIEKVPKV
notes: Point mutant of His-tagged KD1, KD1 numbering; also called G21D (G12D); not shown: N-terminal decahistidine-tag leader and enterokinase cleavage site from pET19b
Ki (human plasmin [1]): 59 nM | Ki [2]: 26000 nM | Ki (porcine trypsin [3]): 42 nM

B6: L26Q KD1 (other)
chain: DAAQEPTGNNAEICLLPLDYGPCRAQLLRYYYDRYTQSCRQFLYGGCEGNANNFYTWEACDDACWRIEKVPKV
notes: Point mutant of His-tagged KD1, KD1 numbering; also called L26Q (L17Q); not shown: N-terminal decahistidine-tag leader and enterokinase cleavage site from pET19b
Ki (human plasmin [1]): 29 nM | Ki [2]: 54000 nM | fold reduction in inhibitory potency (against wild-type KD1) (human plasmin [9]): ≥ 10 fold | fold reduction in inhibitory potency (against wild-type KD1) (porcine trypsin [10]): ≥ 10 fold | fold reduction in inhibitory potency (against wild-type KD1) [11]: ≥ 10 fold | Ki (porcine trypsin [3]): 162 nM

B7: R24K KD1 (other)
chain: DAAQEPTGNNAEICLLPLDYGPCKALLLRYYYDRYTQSCRQFLYGGCEGNANNFYTWEACDDACWRIEKVPKV
notes: also called R24K (R15K); R24K KD1 polypeptide; not shown: N-terminal extension from the expression vector
fold reduction of inhibitory activity (against wild-type KD1) [12]: ~5 fold | Ki (human plasmin [1]): 0.85 nM | Ki [2]: 8550 nM | Ki (porcine trypsin [3]): 8 nM

B8: R24Q KD1 (other)
chain: DAAQEPTGNNAEICLLPLDYGPCQALLLRYYYDRYTQSCRQFLYGGCEGNANNFYTWEACDDACWRIEKVPKV
notes: Point mutant of His-tagged KD1, KD1 numbering; also called R24Q (R15Q); not shown: N-terminal decahistidine-tag leader and enterokinase cleavage site from pET19b
Ki (human plasmin [1]): 48 nM | Ki [2]: 55700 nM | Ki (porcine trypsin [3]): 296 nM

B9: R29A KD1 (other)
chain: DAAQEPTGNNAEICLLPLDYGPCRALLLAYYYDRYTQSCRQFLYGGCEGNANNFYTWEACDDACWRIEKVPKV
notes: Point mutant of His-tagged KD1, KD1 numbering; also called R29A (R20A); not shown: N-terminal decahistidine-tag leader and enterokinase cleavage site from pET19b
Ki (human plasmin [1]): 12 nM | Ki [2]: 3930 nM | Ki (porcine trypsin [3]): 52 nM

B10: R29D KD1 (other)
chain: DAAQEPTGNNAEICLLPLDYGPCRALLLDYYYDRYTQSCRQFLYGGCEGNANNFYTWEACDDACWRIEKVPKV
notes: Point mutant of His-tagged KD1, KD1 numbering; also called R29D (R20D); not shown: N-terminal decahistidine-tag leader and enterokinase cleavage site from pET19b
Ki (human plasmin [1]): 261 nM | Ki [2]: 44600 nM | Ki (porcine trypsin [3]): 4600 nM

B11: R29K KD1 (other)
chain: DAAQEPTGNNAEICLLPLDYGPCRALLLKYYYDRYTQSCRQFLYGGCEGNANNFYTWEACDDACWRIEKVPKV
notes: Point mutant of His-tagged KD1, KD1 numbering; also called R29K (R20K); not shown: N-terminal decahistidine-tag leader and enterokinase cleavage site from pET19b
Ki (human plasmin [1]): 5 nM | Ki [2]: 1120 nM | Ki (porcine trypsin [3]): 20 nM

B12: Y20A KD1 (other)
chain: DAAQEPTGNNAEICLLPLDAGPCRALLLRYYYDRYTQSCRQFLYGGCEGNANNFYTWEACDDACWRIEKVPKV
notes: Point mutant of His-tagged KD1, KD1 numbering; also called Y20A (Y11A); not shown: N-terminal decahistidine-tag leader and enterokinase cleavage site from pET19b
Ki (human plasmin [1]): 16 nM | Ki [2]: 1350 nM | Ki (porcine trypsin [3]): 8 nM
